Test results reported in US20050182242A1, “Global analysis of protein activities using proteome chips” (priority 2001, published 2005).

Columns and labels:
[1] = test system: phospholipids (phosphatidylinositols vs phosphatidylcholine); test: Proteome chip lipid-binding screen, overall analysis of six liposomes (PI/PC specificity); details: phospholipid liposome probes
Description: FIGS. 4A-4D. Analysis of the phosphatidylinositol-binding proteins. To determine the phosphatidylinositol (“PI”)-binding specificity of 150 positive proteins, their binding signals were normalized against the corresponding binding signals of phosphatidylcholine (“PC”). Based on the ratios (“PI/PC”), the proteins were grouped into four categories: (A) 30 strong and specific, (B) 43 strong and nonspecific, (C) 19 weak and specific, and (D) 58 weak and nonspecific phosphatidylinositol-binding proteins. The intensity represents the PI/PC signal ratio as shown by the scale in the figure. The column, labeled “10^n” to the right of the PI/PC binding ratios indicates the maximum binding signal intensity (open boxes) and its confidence interval (solid horizontal lines); the numbers indicate the log of the values. Boxes in the three columns to the right of the confidence interval column indicate membrane-associated proteins (“Membrane”), kinases (“Kinase”), and uncharacterized ORFs (“Unknown”), respectively.
To identify PI-binding proteins in yeast, liposomes were used as probes because the liposome provides the most relevant physiological condition to assay the interactors. Six types of liposomes were used. Each contains phosphatidylcholine (“PC”) with 1% (w/w) N-(biotinoyl)-1,2-dihexadecanoyl-sn-glycero-3-phosphoethanolamine, triethylammonium salt (biotin DHPE). The biotinylated lipid serves as a label that can be detected by Cy3-streptavidin (21). In addition to PC, the five other liposomes contain either 5% (w/w) PI(3)P, PI(4)P, PI(3,4)P2, PI(4,5)P2, or PI(3,4,5)P3 (FIG. 3A).
The protein-liposome interaction was assayed as follows. Appropriate amounts of each lipid in chloroform were mixed and dried under nitrogen. The lipid mixture was resuspended in TBS buffer by vortexing. The liposomes were created by sonication. Blocked proteome chips were washed three to five times in PBS buffer, and the extra liquid on the glass surface was removed by tapping the slides vertically on a KIMWIPE™. 200 μl of liposome solution was added to the proteome chip and immediately covered by a hydrophobic plastic cover slip (GRACE BIO-LAB™, USA). After trapped air bubbles were removed, the chip was incubated in a humidity chamber at RT for one hour. To remove the cover slip, the chip was immersed into large volume of PBS buffer (50 ml), so that the slip would float away. The chip was then moved to a second PBS bath (>50 ml) and washed 3×5 min with shaking at RT. After removing extra liquid on the surface of the chip, about 100 μl of Cy3 or Cy5 conjugated streptavidin (PIERCE™, USA; 1:2000 to 1:4000 dilution) was added to the surface and covered by a hydrophobic plastic cover slip (GRACE BIO-LABS™, USA). The chip was incubated for greater than 30 min in the dark at RT. The chip was then washed as described above. To completely remove the liquid on the chip, the chip was spun to dryness at 1500-2000 rpm for 5-10 min at RT.
An algorithm was devised to assist in the identification of positive signals (42). Fifty-two (35%) of the interactors (i.e., lipid-binding proteins) correspond to uncharacterized proteins thus ascribing the first biochemical activities to those proteins.
The interactors (i.e., phospholipid-binding proteins) were grouped in several ways (42). First, the interactors were sorted according to whether they bound lipids strongly or weakly, based on the phospholipid-binding signal relative to the amount of GST (FIG. 4). Slightly more (72%) of the strong lipid binding proteins (FIGS. 4A and 4B) were characterized relative to the weakly binding proteins (54%) (FIGS. 4C and 4D). Many of the strong lipid-binding proteins are membrane-associated, or are predicted to be associated with membranes, whereas fewer of the weaker binding proteins appear to be associated with membranes (FIG. 4, “Membrane” column). […] Moreover, thirteen of the seventeen protein kinases bind very strongly to the phospholipids. […]

PI(4,5)P2 liposomes = test: Nitrocellulose membrane assay: adhered PI(4,5)P2 liposomes probed with GST fusion proteins; type: binding; details: dilution series, anti-GST antibodies, ECL
Description: A. PI(4,5)P2 liposomes were first adhered to a nitrocellulose membrane, which was blocked by BSA; a dilution series of Rim15p, Eno2p, and Hxk1p, and a GST control were used to probe the membrane. The bound proteins were detected using the anti-GST antibodies and an enhanced chemiluminescence (“ECL”) kit.
Therefore, six proteins, i.e., Rim15p, Eno2p, Hxk1p, Sps1p, Yg1059wp, and Gcn2p, were further tested for phosphoinositol binding using two types of standard assays (Williamson, 2000, Nat. Struct Biol. 7(10):834-7). For Rim15p, Eno2p, and Hxk1p, PI(4,5)P2 liposomes were first adhered to a nitrocellulose membrane, which was then blocked by BSA; different amounts of the GST fusion proteins and a GST control were used to probe the membrane, and bound proteins were detected using anti-GST antibodies. […] We also carried out the reverse assay for four GST fusion proteins, Rim15p, Sps1p, Yg1059wp, and Gcn2p (Guerra et al., 2000, Biosci. Rep. 20: 41). Different amounts of these purified proteins were spotted onto nitrocellulose filters and probed with the six different liposomes (FIG. 5B). The bound liposomes were detected using a horseradish peroxidase (“HRP”)-conjugated streptavidin.

| identified as lipid-binding interactor [1] | binding to PI(4,5)P2 liposomes on membrane (PI(4,5)P2 liposomes) | Molecule |
| --- | --- | --- |
| identified | tightly bound PI(4,5)P2 | Eno2p: yeast enolase, GST fusion (protein, UniProt P00925 2-437, looked up, GST tag, yeast enolase, GST fusion) Enolase 2: AVSKVYARSVYDSRGNPTVEVELTTEKGVFRSIVPSGASTGVHEALEMRDEDKSKWMGKGVMNAVNNVNNVIAAAFVKANLDVKDQKAVDDFLLSLDGTANKSKLGANAILGVSMAAARAAAAEKNVPLYQHLADLSKSKTSPYVLPVPFLNVLNGGSHAGGALALQEFMIAPTGAKTFAEAMRIGSEVYHNLKSLTKKRYGASAGNVGDEGGVAPNIQTAEEALDLIVDAIKAAGHDGKVKIGLDCASSEFFKDGKYDLDFKNPESDKSKWLTGVELADMYHSLMKRYPIVSIEDPFAEDDWEAWSHFFKTAGIQIVADDLTVTNPARIATAIEKKAADALLLKVNQIGTLSESIKAAQDSFAANWGVMVSHRSGETEDTFIADLVVGLRTGQIKTGAPARSERLAKLNQLLRIEEELGDKAVYAGENFHHGDKL |
| identified | tightly bound PI(4,5)P2 | Hxk1p: yeast hexokinase, GST fusion (protein, UniProt P04806 1-485, looked up, GST tag, yeast hexokinase, GST fusion) Hexokinase-1: MVHLGPKKPQARKGSMADVPKELMDEIHQLEDMFTVDSETLRKVVKHFIDELNKGLTKKGGNIPMIPGWVMEFPTGKESGNYLAIDLGGTNLRVVLVKLSGNHTFDTTQSKYKLPHDMRTTKHQEELWSFIADSLKDFMVEQELLNTKDTLPLGFTFSYPASQNKINEGILQRWTKGFDIPNVEGHDVVPLLQNEISKRELPIEIVALINDTVGTLIASYYTDPETKMGVIFGTGVNGAFYDVVSDIEKLEGKLADDIPSNSPMAINCEYGSFDNEHLVLPRTKYDVAVDEQSPRPGQQAFEKMTSGYYLGELLRLVLLELNEKGLMLKDQDLSKLKQPYIMDTSYPARIEDDPFENLEDTDDIFQKDFGVKTTLPERKLIRRLCELIGTRAARLAVCGIAAICQKRGYKTGHIAADGSVYNKYPGFKEAAAKGLRDIYGWTGDASKDPITIVPAEDGSGAGAAVIAALSEKRIAEGKSLGIIGA |
